The chains are these.
T1: mouse HRt (hairless protein aa 490-1182) (Mus musculus, UniProt Q61645)
T1 construct: HR cDNA corresponding to the C-terminal half of HR protein (aa residues 490 to 1182, hereinafter HRt); expressed in transfected cells; host or cells: Saccharomyces cerevisiae PJ69-2A transformed with BD-HRt plasmid, mated with Y187 carrying the human brain cDNA library in pACT2
T1 sequence (Q61645 490-1182): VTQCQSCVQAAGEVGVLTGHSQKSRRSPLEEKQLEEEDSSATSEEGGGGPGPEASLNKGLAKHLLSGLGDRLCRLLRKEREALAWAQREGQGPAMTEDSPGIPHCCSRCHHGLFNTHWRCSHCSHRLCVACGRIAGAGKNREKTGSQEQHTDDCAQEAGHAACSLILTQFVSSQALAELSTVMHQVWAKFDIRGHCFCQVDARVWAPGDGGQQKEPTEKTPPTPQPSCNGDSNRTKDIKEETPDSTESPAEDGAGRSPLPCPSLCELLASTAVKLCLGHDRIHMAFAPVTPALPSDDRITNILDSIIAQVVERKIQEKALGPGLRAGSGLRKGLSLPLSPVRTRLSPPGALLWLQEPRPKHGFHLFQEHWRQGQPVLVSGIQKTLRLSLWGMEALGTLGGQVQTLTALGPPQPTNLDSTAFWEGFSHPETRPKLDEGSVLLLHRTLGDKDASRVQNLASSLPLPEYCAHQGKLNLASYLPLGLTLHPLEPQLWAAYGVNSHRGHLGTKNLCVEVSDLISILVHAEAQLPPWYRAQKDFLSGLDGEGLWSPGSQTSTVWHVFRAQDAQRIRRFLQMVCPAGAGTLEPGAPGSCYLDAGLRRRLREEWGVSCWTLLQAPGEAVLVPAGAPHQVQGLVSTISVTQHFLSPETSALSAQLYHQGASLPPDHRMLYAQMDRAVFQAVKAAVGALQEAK

B1: Human metallothionein from cadmium-treated cells: human HRt interacting partner, GenBank V00594, SEQ ID NO:3/4 (protein, listed as Homo sapiens)
chain: VPANPRATCPDSSRLFSSPWIPTAPAPPVTPAPAPAPANAKSANAPPARKAAAPAALWAVPSVPRAASAKGRRTSAAAAPDAGTAPLPDVKNATSTNLDFLCTTLTVTVCYIPFSMK
B2: Human PACE4 (SPC4): human HRt interacting partner, GenBank AB001899, SEQ ID NO:69 (protein, UniProt P29122 150-969, looked up)
Proprotein convertase …: QVRSDPQALYFNDPIWSNMWYLHCGDKNSRCRSEMNVQAAWKRGYTGKNVVVTILDDGIERNHPDLAPNYDSYASYDVNGNDYDPSPRYDASNENKHGTRCAGEVAASANNSYCIVGIAYNAKIGGIRMLDGDVTDVVEAKSLGIRPNYIDIYSASWGPDDDGKTVDGPGRLAKQAFEYGIKKGRQGLGSIFVWASGNGGREGDYCSCDGYTNSIYTISVSSATENGYKPWYLEECASTLATTYSSGAFYERKIVTTDLRQRCTDGHTGTSVSAPMVAGIIALALEANSQLTWRDVQHLLVKTSRPAHLKASDWKVNGAGHKVSHFYGFGLVDAEALVVEAKKWTAVPSQHMCVAASDKRPRSIPLVQVLRTTALTSACAEHSDQRVVYLEHVVVRTSISHPRRGDLQIYLVSPSGTKSQLLAKRLLDLSNEGFTNWEFMTVHCWGEKAEGQWTLEIQDLPSQVRNPEKQGKLKEWSLILYGTAEHPYHTFSAHQSRSRMLELSAPELEPPKAALSPSQVEVPEDEEDYTAQSTPGSANILQTSVCHPECGDKGCDGPNADQCLNCVHFSLGSVKTSRKCVSVCPLGYFGDTAARRCRRCHKGCETCSSRAATQCLSCRRGFYHHQEMNTCVTLCPAGFYADESQKNCLKCHPSCKKCVDEPEKCTVCKEGFSLARGSCIPDCEPGTYFDSELIRCGECHHTCGTCVGPGREECIHCAKNFHFHDWKCVPACGEGFYPEEMPGLPHKVCRRCDENCLSCAGSSRNCSRCKTGFTQLGTSCITNHTCSNADETFCEMVKSNRLCERKLFIQFCCRTCLLAG
B3: Human […]-mannosidase: human HRt interacting partner, GenBank U60337, SEQ ID NO:80/81 (protein, UniProt O00462 18-879, looked up)
Beta-mannosidase: AAELSYSLRGNWSICNGNGSLELPGAVPGCVHSALFQQGLIQDSYYRFNDLNYRWVSLDNWTYSKEFKIPFEISKWQKVNLILEGVDTVSKILFNEVTIGETDNMFNRYSFDITNVVRDVNSIELRFQSAVLYAAQQSKAHTRYQVPPDCPPLVQKGECHVNFVRKEQCSFSWDWGPSFPTQGIWKDVRIEAYNICHLNYFTFSPIYDKSAQEWNLEIESTFDVVSSKPVGGQVIVAIPKLQTQQTYSIELQPGKRIVELFVNISKNITVETWWPHGHGNQTGYNMTVLFELDGGLNIEKSAKVYFRTVELIEEPIKGSPGLSFYFKINGFPIFLKGSNWIPADSFQDRVTSELLRLLLQSVVDANMNTLRVWGGGIYEQDEFYELCDELGIMVWQDFMFACALYPTDQGFLDSVTAEVAYQIKRLKSHPSIIIWSGNNENEEALMMNWYHISFTDRPIYIKDYVTLYVKNIRELVLAGDKSRPFITSSPTNGAETVAEAWVSQNPNSNYFGDVHFYDYISDCWNWKVFPKARFASEYGYQSWPSFSTLEKVSSTEDWSFNSKFSLHRQHHEGGNKQMLYQAGLHFKLPQSTDPLRTFKDTIYLTQVMQAQCVKTETEFYRRSRSEIVDQQGHTMGALYWQLNDIWQAPSWASLEYGGKWKMLHYFAQNFFAPLLPVGFENENTFYIYGVSDLHSDYSMTLSVRVHTWSSLEPVCSRVTERFVMKGGEAVCLYEEPVSELLRRCGNCTRESCVVSFYLSADHELLSPTNYHFLSSPKEAVGLCKAQITAIISQQGDIFVFDLETSAVAPFVWLDVGSIPGRFSDNGFLMTEKTRTILFYPWEPTSKNELEQSFHVTSLTDIY
B4: Human cDNA FLJ20109 fis clone COL05067: human HRt interacting partner, GenBank BC009472, SEQ ID NO:72/73 (protein, listed as Homo sapiens)
chain: VASPPVPCSAAFRSLHISVARDLKMRLHLLLLLALCGAGTTAAELSYSLRGNWSICNGNGSLELPGAVPGCVHSALFQ
B5: Human splicing factor (CC1.4): human HRt interacting partner, GenBank L10911, SEQ ID NO:59/60 (protein, listed as Homo sapiens)
chain: EFAAASTTAPVIIFVSKMFAVDAKALPQNKPRPLTQEEIAQRRERARQRHAEKLAAAQGQAPLEPTQDGSAIETCPKGEEPRGDEQQVESMTPKPVLQEENNQESFIAFARVFSGVARRGKKIFVLGPKYSPLEFLRRVPLGFSAPPDGLPQVPHMAYCALENLYLLMGRELEYLEEVPPGNVLGIGGLQDFVLKSATLCSLPSCPPFIPLNFEATPIVRVAVEPKHPSEMPQLVKG
B6: Human transcription factor Y, gamma: human HRt interacting partner, GenBank BC005003, SEQ ID NO:53/54 (protein, UniProt Q13952 1-458, looked up)
Nuclear transcription factor …: MSTEGGFGGTSSSDAQQSLQSFWPRVMEEIRNLTVKDFRVQELPLARIKKIMKLDEDVKMISAEAPVLFAKAAQIFITELTLRAWIHTEDNKRRTLQRNDIAMAITKFDQFDFLIDIVPRDELKPPKRQEEVRQSVTPAEPVQYYFTLAQQPTAVQVQGQQQGQQTTSSTTTIQPGQIIIAQPQQGQTTPVTMQVGEGQQVQIVQAQPQGQAQQAQSGTGQTMQVMQQIITNTGEIQQIPVQLNAGQLQYIRLAQPVSGTQVVQGQIQTLATNAQQGQRNASQGKPRRCLKETLQITQTEVQQGQQQFSQFTDGQRNSVQQARVSELTGEAEPREVKATGNSTPCTSSLPTTHPPSHRAGASCVCCSQPQQSSTSPPPSDALQWVVVEVSGTPNQLETHRELHAPLPGMTSLSPLHPSQQLYQIQQVTMPAGQDLAQPMFIQSANQPSDGQAPQVTGD
B7: Human MDC15: human HRt interacting partner, GenBank U46005, SEQ ID NO:77 (protein, listed as Homo sapiens)
chain: LGLQWHADGRLTKKLNGLADLEACIKTLHGQGFSQPSLTTLTAFSVEGCLQEHCVILIQSW
B8: Human neuronal membrane glycoprotein M6b1: human HRt interacting partner, GenBank AF016004, SEQ ID NO:56 (protein, UniProt Q13491 1-265, looked up)
Neuronal membrane …: MKPAMETAAEENTEQSQERKGCFECCIKCLGGVPYASLVATILCFSGVALFCGCGHVALAGTVAILEQHFSTNASDHALLSEVIQLMQYVIYGIASFFFLYGIILLAEGFYTTSAVKELHGEFKTTACGRCISGMFVFLTYVLGVAWLGVFGFSAVPVFMFYNIWSTCEVIKSPQTNGTTGVEQICVDIRQYGIIPWNAFPGKICGSALENICNTNEFYMSYHLFIVACAGAGATVIALLIYMMATTYNYAVLKFKSREDCCTKF

The source of these data is patent publication US20040086945A1, “Hairless protein-interacting partner complexes and methods thereto” (The Procter & Gamble Company, priority 2002, published 2004).

The target in the assay is T1, mouse HRt (hairless protein aa 490-1182). The assay is described as follows: Yeast two-hybrid screen of BD-HRt against human brain cDNA library in AD vector, lacZ coloration on QDO-Xgal plates. It is filed as cell-based. The conditions noted are these: BD-HRt(mouse) x human brain cDNA library in AD-vector. An excerpt: The present example provides for Hairless Protein (HR) interacting partners (HR-IP) using the yeast two-hybrid technology. […] Yeast cells expressing BD-HRt are mated with yeast cells pretransformed with human brain cDNA library in the activation domain (AD) vector.
Cloning of HRt into GAL4 binding domain (BD) yeast two-hybrid (Y2H) vector: The HRt insert from pET32a-HRt is excised as an Eco RI-Xho I fragment (there is a unique Xho I site just adjacent to HRt insert) and inserted at the Eco RI-Sal I sites of Y2H-BD vector pGBKT7 (Catalog No. K1612-B; a component of Matchmaker two-hybrid System 3 (Catalog No. K1612-1) BD Biosciences Clontech, Palo Alto, Calif.) to obtain pGBKT7-HRt in which HRt is fused in-frame to GAL 4 DNA BD (this plasmid is also designated BD-HRt).
Pretransformed human brain […] cDNA Library Screen for HRt interaction partners: Pretransformed human brain […] high-complexity GAL4 cDNA library that has already been amplified and introduced into yeast strain Y187 (MATα) is used to screen for HRt interacting proteins. […] The library host strain Y187 provides a third reporter gene (lacZ) for optional quantification of signal strength. The protocol as described in Clontech user manual (PT3183-1) is used. Briefly, the library is mixed with PJ69-2A strain that has been transformed with the BD-HRt plasmid in YPD medium containing adenine hemisulfate (0.004%) and kanamycin (0.005%) and incubated for 20-24 h at 30° C. The next day, the mating mixture is plated on Leu, Trp, His TDO that selects for two-hybrid interactions, and then the positive clones are screened for growth on Leu, Trp, His, Ade QDO, which is a more stringent condition for interaction. Colonies that grew well on QDO are also screened for lacZ expression by streaking on QDO-Xgal plates. Based on a visual assessment of colonies for the intensity of blue color, the clones are classified into high (H), medium (M), low (L) or very low (VL) categories.
The positive clones are expected to contain an AD-IP (interacting partner) that interacts with BD-HRt. To characterize IP, the sequence of IP is determined and matched to the human genome database. For this purpose, total DNA is isolated from the positive clones and PCR amplified with […] AD LD (long distance)-insert screening amplimers (Catalog No.9103-1; BD Biosciences Clontech, PaloAlto, Calif.). Reaction is conducted in 50 μl volume for 35 cycles using the conditions recommended with the Advantage2 PCR kit (Catalog No. K1910-1; BD Biosciences Clontech, PaloAlto, Calif.).
As to B1, the “XGAL (rate and intensity of coloration of colonies on Xgal)” value (“XGAL” for short) is recorded as “H (H = Intense blue within 2-3 days)”.
As for B2, the entry is “L (L = Low blue in 5-7 days)”; as for B3, “L (L = Low blue in 5-7 days)”; as for B4, “L (L = Low blue in 5-7 days)”.
B5: the “XGAL” value is “L/VL”.
Regarding B6, the “XGAL” value is recorded as “L (L = Low blue in 5-7 days)”.
As for B7, the entry is “L (L = Low blue in 5-7 days)”; as for B8, “L (L = Low blue in 5-7 days)”.
